Target: T1, Human CD117 antigen (human, UniProt P10721 26-520)
T1 construct: also called c-kit; Stem Cell Factor Receptor
Experiment: chemical cross-linking, High-Mass MALDI MS and nLC-Orbitrap MS of the complex

T1 sequence (P10721 other isoform, or with tags, fused parts or gaps limits assumed): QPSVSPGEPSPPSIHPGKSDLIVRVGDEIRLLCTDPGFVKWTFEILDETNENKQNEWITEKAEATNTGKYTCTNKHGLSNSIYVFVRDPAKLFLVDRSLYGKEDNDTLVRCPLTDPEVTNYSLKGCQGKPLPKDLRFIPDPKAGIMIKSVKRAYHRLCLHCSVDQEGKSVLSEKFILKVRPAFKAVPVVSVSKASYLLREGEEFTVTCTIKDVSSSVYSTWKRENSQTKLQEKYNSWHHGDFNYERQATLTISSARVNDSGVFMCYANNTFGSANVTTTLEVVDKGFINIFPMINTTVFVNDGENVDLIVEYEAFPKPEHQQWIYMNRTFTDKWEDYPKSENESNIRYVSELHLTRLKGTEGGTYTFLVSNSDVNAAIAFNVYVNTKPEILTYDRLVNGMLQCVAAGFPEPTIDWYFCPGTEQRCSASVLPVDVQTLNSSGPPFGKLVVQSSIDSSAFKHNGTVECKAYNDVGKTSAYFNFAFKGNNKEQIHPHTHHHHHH

B1: anti-CD117 antibody 85 (Ab85) (antibody, V domains shown)
VH: EVQLVQSGAEVKKPGESLKISCKGSGYSFTNYWIGWVRQMPGKGLEWMAIINPRDSDTRYRPSFQGQVTISADKSISTAYLQWSSLKASDTAMYYCARHGRGYEGYEGAFDIWGQGTLVTVSS
VL: DIQMTQSPSSLSASVGDRVTITCRSSQGIRSDLGWYQQKPGKAPKLLIYDASNLETGVPSRFSGSGSGTDFTLTISSLQPEDFATYYCQQANGFPLTFGGGTKVEIK
notes: Human antibody derived from CK6; also called Antibody HC-85/LC-85
B1: binds.

Source: US20220177575A1 (MAGENTA THERAPEUTICS, published 2022)
